Laboratory results published in publication PMC4231766.

Tested on: 340R WT (MBP fusion) (Invertebrate iridescent virus 6 (IIV-6))
Experiment: EMSA
Conditions: EMSA 1 h at room temperature, 5 ng long dsRNA or 1 nM siRNA/19-nt dsRNA; 6% or 12% native PAGE; binding buffer not given (as ref 11); protein dialysis/storage …

Substance: 19-nt blunt dsRNA
- Kd: 1170 nM

Substance: 21-nt siRNA duplex
- Kd: 718 nM

Substance: 126-nt long dsRNA
- Kd: 139 nM
